We go through four molecules from article PMC9458440, “Cryo-EM structure of the Smc5/6 holo-complex” (Nucleic Acids Research, 2022).

The labels stand for the following.
T1: Smc6 (Walker B mutant E1048Q), subunit of the S. cerevisiae Smc5/6 holo-complex (S. cerevisiae, UniProt Q12749 1-1114, E1048Q)
T1 construct: Smc6, Saccharomyces cerevisiae; the model holds amino acids 74-213, 215-290, 292-370, 387-431, 436-805, 814-919, 922-1104; The complex was crosslinked with BS3; also called ν-SMC; source: recombinant, expressed in insect cells, purified as holo-complex (Superose 6 SEC), BS3-crosslinked
T1 sequence: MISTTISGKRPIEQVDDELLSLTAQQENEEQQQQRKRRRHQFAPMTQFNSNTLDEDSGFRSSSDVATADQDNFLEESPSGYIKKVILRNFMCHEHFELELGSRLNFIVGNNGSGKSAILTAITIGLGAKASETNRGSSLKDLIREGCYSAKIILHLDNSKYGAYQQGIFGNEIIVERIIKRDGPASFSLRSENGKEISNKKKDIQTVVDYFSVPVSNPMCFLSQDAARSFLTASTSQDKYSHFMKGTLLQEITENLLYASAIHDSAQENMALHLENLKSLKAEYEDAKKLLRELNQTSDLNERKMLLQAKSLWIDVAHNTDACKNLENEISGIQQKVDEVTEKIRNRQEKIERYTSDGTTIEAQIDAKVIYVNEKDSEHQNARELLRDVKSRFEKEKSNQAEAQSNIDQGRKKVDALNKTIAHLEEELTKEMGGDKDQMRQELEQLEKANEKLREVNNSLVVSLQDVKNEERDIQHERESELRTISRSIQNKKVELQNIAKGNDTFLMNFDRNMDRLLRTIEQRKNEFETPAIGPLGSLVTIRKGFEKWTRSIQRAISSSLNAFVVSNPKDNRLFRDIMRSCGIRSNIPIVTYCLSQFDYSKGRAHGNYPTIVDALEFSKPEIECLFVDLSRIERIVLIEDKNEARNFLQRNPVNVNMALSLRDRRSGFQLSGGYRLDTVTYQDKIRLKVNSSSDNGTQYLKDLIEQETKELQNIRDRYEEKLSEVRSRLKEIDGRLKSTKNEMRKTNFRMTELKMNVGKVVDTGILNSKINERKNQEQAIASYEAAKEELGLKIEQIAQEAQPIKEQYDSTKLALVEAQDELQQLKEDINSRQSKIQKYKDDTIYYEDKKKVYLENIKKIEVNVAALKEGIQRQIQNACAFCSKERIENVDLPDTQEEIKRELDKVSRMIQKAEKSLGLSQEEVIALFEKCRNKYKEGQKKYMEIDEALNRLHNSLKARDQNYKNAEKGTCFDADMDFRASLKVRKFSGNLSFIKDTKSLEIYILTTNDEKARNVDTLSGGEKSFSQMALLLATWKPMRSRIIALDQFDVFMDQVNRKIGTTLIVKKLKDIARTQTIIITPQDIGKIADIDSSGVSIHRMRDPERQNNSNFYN

B1: Nse4 with HaloTag, kleisin subunit of the S. cerevisiae Smc5/6 holo-complex (natural protein)
chain: MSSTVISRKRRNSTVTEPDSSGETRKQKKSRSDEKSSSSKDGDPQLEFKVLQGYRDLESEMHKGRAQVTRTGDIGVAMDNLNAVDSLFNKVIGIKNNGLFAHDARAMVSISELAQISVRNLKFDDSRSMVNLENIVNSLKRYMLKEHFKLNNIAENRNDLTLAADEQSAADQQEESDGDIDRTPDDNHTDKATSSFKATSMRHSYLQQFSHYNEFSQFNWFRIGALYNTISKNAPITDHLMGPLSIEKKPRVLTQRRRNNDQVGEKITAEKITQHSLNSTQQETTPEQVKKCFKKLSKKLGPEGSINLFKFIIDPNSFSRSIENLFYTSFLIKEGKLLMEHDEEGLPTIKIKQSISHTDSRSKEIERQRRRAAHQNHIIFQMDMPTWRKLIKKYNITSPFLD
notes: Nse4, Saccharomyces cerevisiae; the model holds amino acids 40-124, 184-202, 213-245, 283-402; Density of the HaloTag attached to Nse4 was removed by particle subtraction, so the tag was on the protein on the grid; its end is told only for the yeast strain (C-terminal), not for the recombinant protein; source: recombinant, expressed in insect cells, purified as holo-complex (Superose 6 SEC), …
B2: Nse1, subunit of the S. cerevisiae Smc5/6 holo-complex (natural protein)
chain: MEVHEEQVSAPVTGDATAKYLLQYILSARGICHENALILALMRLETDASTLNTEWSIQQWVDKLNDYINAINVKLNLLGYKIIRINHGIGRNAVTLKAKQNFESFEDNTAIRAHNNDYAVLQSIVLPESNRFFVYVNLASTEETKLATRFNQNEIEFMKWAIEQFMISGETIVEGPALETSIIVKEVNRILVAATGDSNLAKWRKFSTFTVGSTNLFQFQELTATDIEDLLLRLCELKWFYRTQEGKFGIDLRCIAELEEYLTSMYNLNTCQNCHKLAIQGVRCGNESCREENEETGENSLSQIWHVDCFKHYITHVSKNCDRCGSSLITEGVYVI
notes: Nse1, Saccharomyces cerevisiae; the model holds amino acids 11-336; also called KITE subunit; source: recombinant, expressed in insect cells, purified as holo-complex (Superose 6 SEC), BS3-crosslinked
B3: Nse2 (Mms21), subunit of the S. cerevisiae Smc5/6 holo-complex (natural protein)
chain: MALNDNPIPKSVPLHPKSGKYFHNLHARDLSNIYQQCYKQIDETINQLVDSTSPSTIGIEEQVADITSTYKLLSTYESESNSFDEHIKDLKKNFKQSSDACPQIDLSTWDKYRTGELTAPKLSELYLNMPTPEPATMVNNTDTLKILKVLPYIWNDPTCVIPDLQNPADEDDLQIEGGKIELTCPITCKPYEAPLISRKCNHVFDRDGIQNYLQGYTTRDCPQAACSQVVSMRDFVRDPIMELRCKIAKMKESQEQDKRSSQAIDVL
notes: Nse2 (Mms21), Saccharomyces cerevisiae; the model holds amino acids 1-267; source: recombinant, expressed in insect cells, purified as holo-complex (Superose 6 SEC), BS3-crosslinked
B4: Smc5 (Walker B mutant E1015Q), subunit of the S. cerevisiae Smc5/6 holo-complex (natural protein)
chain: MTSLIDLGRYVERTHHGEDTEPRSKRVKIAKPDLSSFQPGSIIKIRLQDFVTYTLTEFNLSPSLNMIIGPNGSGKSTFVCAVCLGLAGKPEYIGRSKKVEDFIKNGQDVSKIEITLKNSPNVTDIEYIDARDETIKITRIITRSKRRSDYLINDYQVSESVVKTLVAQLNIQLDNLCQFLSQERVEEFARLKSVKLLVETIRSIDASLLDVLDELRELQGNEQSLQKDLDFKKAKIVHLRQESDKLRKSVESLRDFQNKKGEIELHSQLLPYVKVKDHKEKLNIYKEEYERAKANLRAILKDKKPFANTKKTLENQVEELTEKCSLKTDEFLKAKEKINEIFEKLNTIRDEVIKKKNQNEYYRGRTKKLQATIISTKEDFLRSQEILAQTHLPEKSVFEDIDIKRKEIINKEGEIRDLISEIDAKANAINHEMRSIQRQAESKTKSLTTTDKIGILNQDQDLKEVRDAVLMVREHPEMKDKILEPPIMTVSAINAQFAAYLAQCVDYNTSKALTVVDSDSYKLFANPILDKFKVNLRELSSADTTPPVPAETVRDLGFEGYLSDFITGDKRVMKMLCQTSKIHTIPVSRRELTPAQIKKLITPRPNGKILFKRIIHGNRLVDIKQSAYGSKQVFPTDVSIKQTNFYQGSIMSNEQKIRIENEIINLKNEYNDRKSTLDALSNQKSGYRHELSELASKNDDINREAHQLNEIRKKYTMRKSTIETLREKLDQLKREARKDVSQKIKDIDDQIQQLLLKQRHLLSKMASSMKSLKNCQKELISTQILQFEAQNMDVSMNDVIGFFNEREADLKSQYEDKKKFVKEMRDTPEFQSWMREIRSYDQDTKEKLNKVAEKYEEEGNFNLSFVQDVLDKLESEIAMVNHDESAVTILDQVTAELRELEHTVPQQSKDLETIKAKLKEDHAVLEPKLDDIVSKISARFARLFNNVGSAGAVRLEKPKDYAEWKIEIMVKFRDNAPLKKLDSHTQSGGERAVSTVLYMIALQEFTSAPFRVVDQINQGMDSRNERIVHKAMVENACAENTSQYFLITPKLLTGLHYHEKMRIHCVMAGSWIPNPSEDPKMIHFGETSNYSFD
notes: Smc5, Saccharomyces cerevisiae; the model holds amino acids 35-390, 394-882, 884-1068; The complex was crosslinked with BS3; also called κ-SMC; source: recombinant, expressed in insect cells, purified as holo-complex (Superose 6 SEC), BS3-crosslinked

Assay in all cases: cryo-EM structure; BS3-crosslinked six-subunit holo-complex, apo / non-liganded; fractions from Superose 6 diluted to 20 mM HEPES.NaOH pH 7.5, 50 mM NaCl, 0.5 mM TCEP, 0.1 mg/ml; maps at 10.8 Å (holo-complex), 8.53 Å (hinge/arm) and 6.5 Å (head-only); pseudo-atomic model built from homology and AlphaFold models
What all share (settings): both partners purified

Assay [1] has as its target B4.
The target in assay [2] is T1, Smc6 (Walker B mutant E1048Q), subunit ….
Assay [3] concerns the target B1.

With B1, the binding result in assay [1] and in assay [2] was “binds” each time.

Regarding B2, the binding result in assay [1] and in assay [3] was “binds” each time.

As for B3, the binding result in assay [1] and in assay [2] was “binds” in each case.

Consider B4, for which the binding result in assay [2] was “binds”.
